Results on four substances are retold here after patent publication US20250313631A1.

Test [1] concerns the target recombinant mouse VISTA (His-tagged) (mouse) (UniProt Q9D659). Nature of the test: ELISA, plate coated with mouse VISTA; unit nM from the legend paragraph 697. In general terms: An ELISA detects its analyte on a solid surface through an enzyme-linked reagent.
The target in test [2] is recombinant cynomolgus macaque VISTA (His-tagged) (cynomolgus macaque). Kind of test: ELISA, plate coated with cyno VISTA.
Test [3] concerns the target recombinant human VISTA (His-tagged) (human) (UniProt Q9H7M9). Nature of the test: ELISA, plate coated with human VISTA; unit nM from the legend paragraph 698.
Test [4] has the same target. Kind of test: ELISA, plate coated with human VISTA; unit nM from the legend paragraph 699.
The target is the same in test [5]. Nature of the test: ELISA, plate coated with human VISTA; unit nM from the legend paragraph 697.
Test [6] shares this target. Kind of test: ELISA, plate coated with human VISTA.
Test [7] deals with recombinant mouse VISTA (His-tagged) (mouse) (UniProt Q9D659). Kind of test: ELISA, plate coated with mouse VISTA; unit nM from the legend paragraph 699.
For test [8] the target is unchanged. Kind of test: ELISA, plate coated with mouse VISTA; unit nM from the legend paragraph 698.
The target is the same in test [9]. Nature of the test: ELISA, plate coated with mouse VISTA.
Test [10] deals with recombinant rat VISTA (His-tagged) (rat). Nature of the test: ELISA, plate coated with rat VISTA.
The target of test [11] is human VISTA expressed on cells (human) (UniProt Q9H7M9). Nature of the test: flow cytometry, FITC-A; HEK293 VISTA O/E cells (unstained cells: MFI 0.12). A general note: In flow cytometry, cells or beads pass a laser one at a time.
Test [12] deals with human FcγRIII (CD16a) (human) (UniProt P08637). Kind of test: ELISA, plate coated with human CD16a (FcγRIII), detection with HRP anti-human Fc antibody.
The target of test [13] is Fc-tagged VSIG-3 (UniProt Q5DX21). Nature of the test: BLI, 100 nM Fc-tagged VSIG-3 on anti-human Fc biosensor, VISTA as analyte from 3000 nM. On the technique in general: BLI is a label-free optical method that tracks binding on a fibre tip over time.

recombinant mouse VISTA (His-tagged) (mouse), sequence (Q9D659 33-191 limits assumed): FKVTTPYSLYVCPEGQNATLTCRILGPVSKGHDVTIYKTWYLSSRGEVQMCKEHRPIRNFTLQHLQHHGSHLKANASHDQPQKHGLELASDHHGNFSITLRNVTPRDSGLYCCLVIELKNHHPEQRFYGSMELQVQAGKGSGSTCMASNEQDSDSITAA
human FcγRIII (CD16a) (human), sequence (P08637 17-208 limits assumed): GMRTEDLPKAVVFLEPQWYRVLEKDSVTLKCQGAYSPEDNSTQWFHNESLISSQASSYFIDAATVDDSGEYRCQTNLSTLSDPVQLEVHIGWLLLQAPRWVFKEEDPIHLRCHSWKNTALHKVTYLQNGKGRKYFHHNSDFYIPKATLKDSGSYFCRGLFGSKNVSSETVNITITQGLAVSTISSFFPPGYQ

On to Human isotype (antibody), for which the EC50 in [1] was 77 nM; in test [2], more than 33 nM; in [3], more than 200 nM; in test [4], 98.5 nM; in test [5] it was 152 nM; in test [6] it was more than 33 nM. The EC50 was more than 200 nM in [7], more than 200 nM in test [8], more than 33 nM in [9] and more than 33 nM in [10].

With Isotype (antibody), the MFI in [11] came out at 0.06.

For the substance hIgG1 Isotype Control (antibody), the EC50 (read off the curve) in test [12] amounted to 1 nM.

On to “recombinant human VISTA (His-tagged) (from UniProt Q9H7M9 33-194) (receptor)”, for which the Kd in test [13] was determined as 5.28 µM.

For orientation: EC50 means the concentration needed to bring the measured effect to its halfway point. As usually defined, the EC50 (read off the curve) is the concentration needed to bring the measured effect to its halfway point. What is called Kd is the concentration at which binding is half-saturated. Higher therefore signals a looser complex.
